# Results reported in patent publication US6677433B2 (The Regents of the University of California, priority 2001, dated 2004).
# T1: NADP-Malate Dehydrogenase (Zea mays, UniProt P15719)
# T1 construct: NADP-malate dehydrogenase (NADP-MDH) and fructose-1,6-bisphosphatase (FBPase) were purified from leaves of corn; from tissue; host or cells: corn leaves
# T1 sequence (P15719 whole entry, looked up): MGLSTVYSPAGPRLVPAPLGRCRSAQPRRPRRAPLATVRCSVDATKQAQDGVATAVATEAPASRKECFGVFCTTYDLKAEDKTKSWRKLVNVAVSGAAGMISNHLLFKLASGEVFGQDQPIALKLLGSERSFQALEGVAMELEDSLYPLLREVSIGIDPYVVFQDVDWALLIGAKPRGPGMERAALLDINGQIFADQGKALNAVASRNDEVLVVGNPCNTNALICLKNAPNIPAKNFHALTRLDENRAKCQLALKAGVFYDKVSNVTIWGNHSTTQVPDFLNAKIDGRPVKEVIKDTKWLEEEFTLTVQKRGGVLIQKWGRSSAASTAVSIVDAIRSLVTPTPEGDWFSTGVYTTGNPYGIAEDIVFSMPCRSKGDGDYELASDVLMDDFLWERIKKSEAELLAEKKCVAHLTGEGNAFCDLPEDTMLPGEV
# T2: trypsin (Bos taurus, UniProt P00760)
# T2 construct: purchased Sigma Chemical Co. (St. Louis, Mo.) T8640
# T2 sequence (P00760 24-246): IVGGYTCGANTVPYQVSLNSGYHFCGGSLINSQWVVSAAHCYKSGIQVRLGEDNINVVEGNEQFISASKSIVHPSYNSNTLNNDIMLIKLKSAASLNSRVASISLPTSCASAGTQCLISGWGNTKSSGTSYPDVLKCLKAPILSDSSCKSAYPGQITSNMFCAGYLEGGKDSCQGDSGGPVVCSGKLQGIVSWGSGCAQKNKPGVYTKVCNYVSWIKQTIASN
# B1: Soybean Kunitz: Kunitz soybean trypsin inhibitor (protein, UniProt P01070 25-205, looked up)
# Trypsin inhibitor A: DFVLDNEGNPLENGGTYYILSDITAFGGIRAAPTGNERCPLTVVQSRNELDKGIGTIISSPYRIRFIAEGHPLSLKFDSFAVIMLCVGIPTEWSVVEDLPEGPAVKIGENKDAMDGWFRLERVSDDEFNNYKLVFCPQQAEDDKCGDIGISIDHDDGTRRLVVSKNKPLVVQFQKLDKESL
# Columns and labels:
# [1] = target: T1, NADP-Malate Dehydrogenase; assay: Activation of chloroplast NADP-malate dehydrogenase by thioredoxin-reduced proteins; type: biochemical, corn; conditions: 20 μg protein; DTT→Thioredoxin→Indicated Protein→Target Enzyme
# Procedure: The NADP-MDH, FBPase, NTR and Thioredoxin h assay methods were according to Florencio, F. J. et al. (1988), Arch. Biochem. Biophys. 266:496-507 with slight modifications as indicated. For enzyme activation assays, the preincubation time was 20 min unless specified otherwise.
# The capability to replace a specific thioredoxin in the activation of chloroplast enzymes is one test for the ability of thiol groups of a given protein to undergo reversible redox change. […] A case in point is purothionin which, when reduced by thioredoxin h activates chloroplast FBPase (Wada, K. et al. (1981), FEBS Lett. 124:237-240, and Johnson, T. C. et al. (1987), Plant Physiol. 85:446-451). The FBPase, whose physiological activator is thioredoxin f, is unaffected by thioredoxin h. In this Example, the ability of cystine-rich proteins to activate FBPase as well as NADP-MDH was tested as set forth above. […]
# The Wada et al., 1981 protocol was used for assaying NADP-malate dehydrogenase and fructose 1,6 bisphosphatase in the presence of thioredoxin and 2S protein. […] The 2S protein was monitored during purification by mBBr/SDS-polyacrylamide gel electrophoresis following its reduction by dithiothreitol and E. coli thioredoxin (Crawford et al., 1989; Kobrehel et al., 1991).
# [2] = target: T2, trypsin; assay: Trypsin inhibition assay after reduction of the inhibitors; type: biochemical
# Procedure: Unless indicated, the reduction of the trypsin inhibitors (0.4 mg/ml) was carried out in 0.1 ml of 20 mM sodium phosphate buffer, pH 7.9 containing 10 mM EDTA at 30° C. for 2 hours. The concentrations of thioredoxin, NTR, and NADPH were 0.024 mg/ml, 0.02 mg/ml, and 0.25 mM, respectively. […] Following reduction, aliquots of the inhibitor mixture were withdrawn either for determination of trypsin inhibitory activity or proteolytic susceptibility. In the subtilisin tests, the inhibitor mixture (50 μl) was directly mixed with subtilisin and incubated at room temperature for 1 hour. With the wheat protease preparation, the pH of the inhibitor mixture (50 μL) was first adjusted to 4.7 by mixing with 35 μl of 200 mM sodium acetate, pH 4.6; 10 μl of the wheat protease preparation was then added and incubation was continued for 2 hours at 37° C. To stop digestion with subtilisin, 2 μl of 100 mM phenylmethylsulfonyl fluoride (PMSF) and 10 μl of 10% SDS were added to the digestion mixture. With the plant protease preparation, digestion was stopped by adding an equal volume of SDS sample buffer [0.125 M Tris-HCl, pH 6.8, 4% (w/v) SDS, 20% (v/v) glycerol, 10% (v/v) β-mercaptoethanol, and 0.02% (w/v) bromophenol blue]. Proteolytic products were analyzed by electrophoresis with 12% or 16% SDS polyacrylamide slab gels (Laemmli, 1970). The dried slab gels were scanned with a laser densitometer (Pharmacia-LKB UltraScan XL) and the peak area of the KTI or BBTI protein band was obtained by integration with a Pharmacia GelScan XL software program.
# Thioredoxin and NTR were assayed as previously described by Florencio et al. (1988). Trypsin activity was measured in 50 mM Tris-HCl, pH 7.9, by following the increase in absorbance at 253 nm with N-benzoyl-L-arginine ethyl ester as substrate (Mundy et al., 1984) or by the release of azo dye into the trichloroacetic acid (TCA)-soluble fraction from azocasein substrate (see below). For trypsin inhibition assays, trypsin (5 to 10 μg) was preincubated with appropriate amounts of KTI or BBTI for 5 minutes at room temperature in 50 mM Tris-HCl, pH 7.9 and proteolytic activity was then determined. While the two substrates yielded similar data, results are presented with only one substrate.
# To determine the consequence of reduction by thioredoxin, the trypsin inhibitory activity of the oxidized and reduced forms of KTI and BBTI was compared. […] Similar results were obtained with DTT, a nonphysiological substitute for thioredoxin, and with thioredoxin reduced by lipoic acid, a naturally occurring dithiol.
molecule,measurement,setting,value
B1,"ACTIVITY, NADP-MDH",[1],2 nkat/mg
same,increase in trypsin activity effected by the NADP/thioredoxin system,[2],3 fold
same,"Relative Trypsin Activity, inhibitor Reduced by DTT","[2]; DTT 1 mM, 30° C., 1 hour, no inhibitor = 100",68.6
same,"Relative Trypsin Activity, inhibitor Reduced by NTS","[2]; E. coli NTS, 30° C., 2 hours, no inhibitor = 100",55.6
same,"Relative Trypsin Activity, inhibitor Reduced by LA/Trx h","[2]; lipoic acid 0.4 mM and wheat thioredoxin h, 30° C., 1 hour",40.5
same,"Relative Trypsin Activity, inhibitor Oxidized","[2]; no inhibitor = 100, N-benzoyl-L-arginine ethyl ester",17.0
